The source of these data is PMC5692476, “Effects of Periplasmic Chaperones and Membrane Thickness on BamA-Catalyzed Outer-Membrane Protein Folding” (Journal of Molecular Biology, 2017).

One experiment deals with OmpC (Escherichia coli) (UniProt P06996). As to the kind of experiment: FRET. The settings on record: cited from earlier work.
The target in experiment [1] is T1, transmembrane domain of OmpA (tOmpA) (E. coli, UniProt P0A910 22-192).
T1 construct: 171-residue transmembrane (beta-barrel) domain of OmpA; Diluted from a denatured state in 8 M urea into the chaperone solution; PDB 1QJP, used for the simulations, is the same domain with mutated residues
T1 sequence (looked up): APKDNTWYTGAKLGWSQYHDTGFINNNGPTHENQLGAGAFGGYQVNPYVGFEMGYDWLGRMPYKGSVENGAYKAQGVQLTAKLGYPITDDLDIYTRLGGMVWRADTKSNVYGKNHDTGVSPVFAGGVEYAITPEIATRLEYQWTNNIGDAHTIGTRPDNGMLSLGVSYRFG
As to the kind of experiment: native MS; nano-ESI; proteins alone or pre-mixed 1:1; tOmpA diluted from 8 M urea into Skp or SurA (all 1 μM final, 0.2 M urea, 50 mM glycine–NaOH pH 9.5), 5 min at room temperature, then buffer exchange into 200 mM ammonium acetate pH 10. Particulars: both partners purified.

Experiment [2] addresses Cys-tOmpA labeled with Alexa Fluor 488 (E. coli). As to the kind of experiment: MST; 100 nM Alexa Fluor 488-labeled Cys-tOmpA, SurA 100 μM–3 nM, 0.25 M urea, 50 mM glycine–NaOH pH 9.5; Monolith NT.115; fit to the Hill equation; apparent.
The target in experiment [3] is T2, SurA (Escherichia coli), P0ABZ6.
T2 chain: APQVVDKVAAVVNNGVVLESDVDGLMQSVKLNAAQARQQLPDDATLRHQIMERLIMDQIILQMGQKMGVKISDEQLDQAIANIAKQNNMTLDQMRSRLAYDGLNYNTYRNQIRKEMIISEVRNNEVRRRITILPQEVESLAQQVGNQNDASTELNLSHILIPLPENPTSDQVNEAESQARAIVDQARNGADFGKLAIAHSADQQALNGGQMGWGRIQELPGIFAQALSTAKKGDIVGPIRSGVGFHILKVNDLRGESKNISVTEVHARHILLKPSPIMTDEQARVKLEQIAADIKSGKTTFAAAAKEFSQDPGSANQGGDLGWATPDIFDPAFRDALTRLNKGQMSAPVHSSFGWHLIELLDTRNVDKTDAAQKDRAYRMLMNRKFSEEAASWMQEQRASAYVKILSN
As to the kind of experiment: native MS; nano-ESI; proteins alone or pre-mixed 1:1; tOmpA diluted from 8 M urea into Skp or SurA (all 1 μM final, 0.2 M urea, 50 mM glycine–NaOH pH 9.5), 5 min at room temperature, then buffer exchange into 200 mM ammonium acetate pH 10. The settings on record: remark: other sources report otherwise.

Broadly, the stoichiometry N is a count of units in the complex or per binding partner.

Values joined by “and” are separate entries in the source; they are usually repeats but may differ in a detail not shown here. Equal entries are not always repeated.

Sequence of OmpC (Escherichia coli) (P06996 22-367): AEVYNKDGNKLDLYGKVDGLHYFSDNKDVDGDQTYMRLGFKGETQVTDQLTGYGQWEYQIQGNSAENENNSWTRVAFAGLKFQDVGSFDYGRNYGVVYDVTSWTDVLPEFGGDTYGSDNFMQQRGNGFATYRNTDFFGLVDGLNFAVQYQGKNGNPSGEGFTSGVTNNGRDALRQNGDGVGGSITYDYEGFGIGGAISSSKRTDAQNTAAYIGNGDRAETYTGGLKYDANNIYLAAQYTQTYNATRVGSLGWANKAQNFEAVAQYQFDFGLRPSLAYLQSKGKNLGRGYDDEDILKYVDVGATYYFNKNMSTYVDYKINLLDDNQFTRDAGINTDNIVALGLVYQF

As to SurA (from UniProt P0ABZ6), the Kd in the experiment with OmpC (Escherichia coli) was 106 nM.

B1: Skp (natural protein, Escherichia coli, UniProt P0AEU7 21-161, looked up)
chain: ADKIAIVNMGSLFQQVAQKTGVSNTLENEFKGRASELQRMETDLQAKMKKLQSMKAGSDRTKLEKDVMAQRQTFAQKAQAFEQDRARRSNEERGKLVTRIQTAVKSVANSQDIDLVVDANAVAYNSSDVKDITADVLKQVK
notes: Skp, periplasmic chaperone of Escherichia coli; Probably the mature protein without its signal peptide (surmised); also called Escherichia coli periplasmic chaperone Skp
As to B1, in experiment [1], the “stoichiometry N” value was 1.

B2: SurA (natural protein, Escherichia coli, UniProt P0ABZ6 21-428, looked up)
chain: APQVVDKVAAVVNNGVVLESDVDGLMQSVKLNAAQARQQLPDDATLRHQIMERLIMDQIILQMGQKMGVKISDEQLDQAIANIAKQNNMTLDQMRSRLAYDGLNYNTYRNQIRKEMIISEVRNNEVRRRITILPQEVESLAQQVGNQNDASTELNLSHILIPLPENPTSDQVNEAESQARAIVDQARNGADFGKLAIAHSADQQALNGGQMGWGRIQELPGIFAQALSTAKKGDIVGPIRSGVGFHILKVNDLRGESKNISVTEVHARHILLKPSPIMTDEQARVKLEQIAADIKSGKTTFAAAAKEFSQDPGSANQGGDLGWATPDIFDPAFRDALTRLNKGQMSAPVHSSFGWHLIELLDTRNVDKTDAAQKDRAYRMLMNRKFSEEAASWMQEQRASAYVKILSN
notes: SurA, periplasmic chaperone of Escherichia coli; Probably the mature protein without its signal peptide (surmised); also called Escherichia coli periplasmic chaperone SurA
Consider B2, for which the Kd in experiment [2] was determined as 1800 nM. Moreover, the stoichiometry N in experiment [3] was 2; in experiment [1], 1 and 2.
